Sequences and labels used below:
T1: active human ETA (purified) (human, UniProt P25101 21-427)
T1 construct: also called human endothelin receptor type A
T1 sequence: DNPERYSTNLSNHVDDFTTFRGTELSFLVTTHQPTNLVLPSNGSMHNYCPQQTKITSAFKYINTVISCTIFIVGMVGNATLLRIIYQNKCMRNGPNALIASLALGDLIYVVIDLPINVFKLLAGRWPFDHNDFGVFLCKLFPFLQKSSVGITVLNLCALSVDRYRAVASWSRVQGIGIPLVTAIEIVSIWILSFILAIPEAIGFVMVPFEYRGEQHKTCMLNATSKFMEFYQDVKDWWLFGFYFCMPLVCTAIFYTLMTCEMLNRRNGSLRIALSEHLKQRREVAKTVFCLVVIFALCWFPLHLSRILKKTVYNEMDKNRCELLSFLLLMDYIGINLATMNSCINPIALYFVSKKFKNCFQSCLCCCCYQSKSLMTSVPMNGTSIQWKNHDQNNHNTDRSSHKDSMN

B1: AB9 (antibody, V domains shown)
VH: EVQLVESGAEVRKPGASVKVSCKASGYTFTSSDINWIRQATGQGLEWMGYMNPKNGNTDYAQKFQGRISMTRDSSISTAYMELSSLRSEDTAVYYCAKDRYGSGTYGEGMDVWGPGTLVT
VL: DIVMTQSPSAMSASVGDRVSITCRASQGINNYLAWFQQKPGKVPKRLMDVGSILQSGIPSRFRGRGSGTQFTLTISSLQAEDSGTYFCLQHNTYPLTFGPGTKVEIKR
notes: also called lead antibody
B2: EF12 (antibody, V domains shown)
VH: EVQLVESGAEVRKPGASVKVSCKASGYTFTSSDINWIRQATGQGLEWMGYMNPKNGNTDYAQKFQGRISMTRDSSISTAYMELSSLRSEDTAVYYCAKDPYGSGTYGFGMDVWGPGTLVT
VL: DIVMTQSPSAMSASVGDRVSITCRASQGINNYLAWFQQKPGKVPKRLMDVGSILQSGIPSRFRGRGSGTQFTLTISSLQAEDSGTYFCLQHNTYPLTFGPGTKVEIKR
notes: also called lead antibody
B3: FG12 (antibody, V domains shown)
VH: EVQLVESGAEVRKPGASVKVSCKASGYTFTSSDINWIRQATGQGLEWMGYMNPKNGNTDYAQKFQGRISMTRDSSISTAYMELSSLRSEDTAVYYCAKDRYGLGTYGFGMDVWGPGTLVT
VL: DIVMTQSPSAMSASVGDRVSITCRASQGINNYLAWFQQKPGKVPKRLMDVGSILQSGIPSRFRGRGSGTQFTLTISSLQAEDSGTYFCLQHNTYPLTFGPGTKVEIKR
notes: also called lead antibody
B4: GG12 (antibody, V domains shown)
VH: EVQLVESGAEVRKPGASVKVSCKASGYTFTSSDINWIRQATGQGLEWMGYMNPKNGNTDYAQKFQGRISMTRDSSISTAYMELSSLRSEDTAVYYCAKDRYGSGVYGFGMDVWGPGTLVT
VL: DIVMTQSPSAMSASVGDRVSITCRASQGINNYLAWFQQKPGKVPKRLMDVGSILQSGIPSRFRGRGSGTQFTLTISSLQAEDSGTYFCLQHNTYPLTFGPGTKVEIKR
notes: also called lead antibody

The assay concerns the target T1, active human ETA (purified). The experiment in a line: ELISA on purified active ETA. The protocol:
The cross-binding activities of the developed antibodies to human ETA and mouse ETA were tested by ELISA.
Consider B1, for which the binding result is “binds”. Turning to B2, the binding result was “binds”. Consider B3, for which the binding result is recorded as “binds”.

With B4, the binding result was “binds”.
